Experimental data published in US20220172420A1 (Daiichi Sankyo, published 2022).

B1: anti-HER3 human antibody U1-59 (antibody, human IgG1, kappa, V domains shown)
VH: QVQLQQWGAGLLKPSETLSLTCAVYGGSFSGYYWSWIRQPPGKGLEWIGEINHSGSTNYNPSLKSRVTISVETSKNQFSLKLSSVTAADTAVYYCARDKWTWYFDLWGRGTLVTVSS
VL: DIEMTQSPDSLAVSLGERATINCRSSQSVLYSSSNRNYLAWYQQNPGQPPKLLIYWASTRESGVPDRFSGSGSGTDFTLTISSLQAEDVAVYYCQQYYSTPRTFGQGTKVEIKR
notes: also called non-conjugated anti-HER3 antibody U1-59
B2: Antibody-drug conjugate (13) (antibody, human IgG1, kappa, V domains shown)
VH: B1 VH
VL: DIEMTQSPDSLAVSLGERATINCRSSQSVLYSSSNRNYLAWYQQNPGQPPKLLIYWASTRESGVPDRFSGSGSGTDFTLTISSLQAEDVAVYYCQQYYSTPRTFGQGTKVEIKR
modifications: may carry the same drug-linker on a cysteine (L chain bound to one drug molecule); position not stated; exatecan drug-linker -(Succinimid-3-yl-N)-CH2CH2CH2CH2CH2-C(=O)-GGFG-NH-CH2-O-CH2-C(=O)-(NH-DX), joined by thioether bonds to cysteines freed by reducing the hinge disulfide bonds; average 6.2 (procedure E) or 7.0 (procedure F) drug molecules per antibody; positions not given
notes: also called ADC (13)
B3: Antibody-drug conjugate (3) (antibody, human IgG1, kappa, V domains shown)
VH: B1 VH
VL: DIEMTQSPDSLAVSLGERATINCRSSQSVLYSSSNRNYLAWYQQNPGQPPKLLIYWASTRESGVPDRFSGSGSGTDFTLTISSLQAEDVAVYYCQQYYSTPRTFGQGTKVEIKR
modifications: may carry the same drug-linker on a cysteine (L chain bound to one drug molecule); position not stated; exatecan drug-linker -(Succinimid-3-yl-N)-CH2CH2CH2CH2CH2-C(=O)-GGFG-NH-CH2CH2CH2-C(=O)-(NH-DX), joined by thioether bonds to cysteines freed by reducing the hinge disulfide bonds; average 4.9 drug molecules per antibody (UV method); positions not given
notes: also called ADC (3)

What follows are binders tested against T1, human epidermal growth factor receptor 3 (HER3) (human, UniProt P21860 20-1342) (assay: flow cytometry on HCC1569 cells, PE-labelled anti-human secondary antibody, one-site specific binding fit).
T1 construct: whole, on cells; The target is the endogenous HER3 of the cell lines used; also called ErbB3; HER3 protein
Procedure: A human breast cancer cell line HCC1569 (CRL-2330) from ATCC was cultured in an RPMI1640 medium (purchased from Invitrogen Corp., containing 10% […] (manufactured by Invitrogen Corp.) and 2 mM L-glutamine (manufactured by Invitrogen Corp.)). The cells were dissociated from the culture plate using ACCUTASE® SOLUTION (Millipore Corp., SCR005) or EDTA (5 mM, phosphate buffered saline (PBS, 137 mM sodium chloride, 2.7 mM potassium chloride, 1.47 mM potassium dihydrogen phosphate, and 10.5 mM disodium hydrogen phosphate)), and the number of living cells was measured by trypan blue treatment.
The cells of each group were reacted with a primary antibody dilution for 45 minutes on ice and then washed with a FACS buffer. Further, 100 uL of a FACS buffer or a reaction solution of a secondary antibody diluted 1/100 (phycoerythrin (PE)-coupled anti human antibody, Dianova GmbH #709-116-149) was added thereto. The cells were treated for 45 minutes on ice in the dark and then washed with a FACS buffer, and dead cells were excluded using a FACS buffer or a FACS buffer supplemented with 7-aminoactinomycin D (7AAD, Sigma-Aldrich Co. LLC, #A9400, 1.1 ug/mL).
The equilibrium binding affinity KD and the maximum binding strength Bmax were calculated using GraphPad Prism software.

Binder | Bmax | Kd
B1 | 31800 | 1.67 nM
B2 | 28400 | 2.76 nM
B3 | 28900 | 1.65 nM
